Consider 7 substances from article PMC2562391.

Common to all, as to experiment: FRET or BRET; two-photon FLIM-FRET in living HeLa cells co-transfected with 0.5 μg of each plasmid, 24 h post transfection; eGFP fusion as donor, mCherry or mCherry fusion as acceptor; E from the donor lifetime with and without acceptor; read at the nuclear envelope, in the cytoplasm, in the nucleus and over the whole cell
Background: In BRET a luciferase serves as donor, and the signal depends on an acceptor being close.

The target of test [1] is I60A Vpr-mCherry (HIV-1 (strain LAI)).
Test [2] deals with Q3R Vpr-mCherry (HIV-1 (strain LAI)).
Test [3] has as its target R77Q Vpr-mCherry (HIV-1 (strain LAI)).
Test [4] has as its target R90K Vpr-mCherry (HIV-1 (strain LAI)).
In test [5] the target is Vpr-mCherry (HIV-1 (strain LAI)).
Test [6] deals with mCherry-Vpr (HIV-1 (strain LAI)).
The target of test [7] is W54G Vpr-mCherry (HIV-1 (strain LAI)).

In test [1], I60A-Vpr-eGFP (natural protein) yielded an FRET efficiency E (nucleus) of 7% and an FRET efficiency E (whole cell) of 6%.
In test [2], Q3R Vpr-eGFP (natural protein) had an FRET efficiency E (whole cell) of 19%.
With R77Q Vpr-eGFP (natural protein), the FRET efficiency E (whole cell) in test [3] came out at 22%.
Regarding R90K Vpr-eGFP (natural protein), the FRET efficiency E (whole cell) in test [4] amounted to 18%.
Consider Vpr-eGFP (natural protein), for which, in test [5], the FRET efficiency E (cytoplasm) was 23%, the FRET efficiency E (nuclear envelope) is 27%, the FRET efficiency E (nucleus) was 19% and the FRET efficiency E (whole cell) was found to be 23%. Further, in test [6], the FRET efficiency E (cytoplasm) is 14%, the FRET efficiency E (nuclear envelope) is 17%, the FRET efficiency E (nucleus) amounted to 13% and the FRET efficiency E (whole cell) was 15%.
Turning to W54G Vpr-eGFP (natural protein), the FRET efficiency E (whole cell) in test [7] stood at 16%.
In test [5], eGFP-Vpr (natural protein) came in with an FRET efficiency E (cytoplasm) of 9%, an FRET efficiency E (nuclear envelope) of 13%, an FRET efficiency E (nucleus) of 6% and an FRET efficiency E (whole cell) of 9%. In test [6], this substance had an FRET efficiency E (cytoplasm) of 7%, an FRET efficiency E (nuclear envelope) of 13%, an FRET efficiency E (nucleus) of 6% and an FRET efficiency E (whole cell) of 8%.
